The domain aggregation screens of Martell et al. (2025)

Assay: soluble fraction after stress (log2 fold change); higher = more stays soluble; pooled small domains, quantitative proteomics
Conditions: stress: 75 degC
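Note: 20 min heating vs room temperature control held 20 min.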

Sequence	soluble fraction (log2)
HMKDTNENLMKMLALLIHAAKIDENYSDEEKELIVNFAEMSSKENLNREQILSIIKSAEEYE	-1.24
HMKEADVRKNEILDAAGILFSEKGYDNTSVTDIMNAVGFAKGTLYHHFKSKEDIMDALIKRQTD	-0.125
HMKEAISIYPNPVKDILTIRGMDETSGVSFKLYDVTGNLLLESTHSELDMSGLNRGVYFLDIAGDVRKVVK	-0.342
HMKEEDLPREYTDILGNSVHERLNIMIHDIIEHSQDKPEVAMSPEREEAMHGLRRWMFDHVYH	-0.168
HMKEEVEILGGKATIYTNDYGVWQFRLWLTTDNKYVRKSLRTKVKDYAITEGEKLYIQIRSDIEKGIKYY	-1.13
HMKEEVSVPDIKGMTYEEAEAKLAKYDLEIEKGETVKASEQYEEGQISSQEPEAGSKVKEGSTIVVDVVE	0.185
HMKEFSFNGGKVIMNYEADRIQIKHDSRPNQEVITLMKRNGFKWSPTNQAWQRQITGNAIYVTKNLLKS	-2.33
HMKEGGGYGQLRLKEAAIQHAFDLQNALQFIAERGYQAHENTTLKEAANALNLKPIELLELLKSSQ	0.0627
HMKEIDVPNVVGASENAARKLLESYGFQVEVQWENGERVDNAVVKSYSPNGSAKSGSTVTIVLGT	0.0998
HMKEINFTIEESAKGRLDKVIAENVADLTRSQVQSLIKKGQILVNDAPTTNRYQVKPNDQVIIKLPDPV	0.396
HMKEKLGEFENVFLSVDELQKLKSKLGAETESYIERLSNYIASSGKKYKSHYATILSWTQKDTK	-0.88
HMKELASKYEISEYMKFLIENLDKSNFFYPIEKRESMINNIFSIYSKADLSKKELNMLWGMLKKLR	-2.31
HMKELTELIEKIKLRRLELGLSYQELSDLTGINKSTLQRYETGFIKKVPINQVQIIAKALNVTPGYLMG	-0.72
HMKEMTAKQIDMFSDKLSKLESFQSHYIADAGVSVTEYKQAIAAKLQDQFYVEAWGKYLADVGFT	-0.393
HMKEPIYQTILSALILELNTNHFRKNDPFYSESELRKKYQVSSTTVVRVLNMLADQGYIYRIQGKGSFVSK	-2.62
HMKESFAQLFSLLTPTEQKVAALISQGFSNKDIAAKMFISLSTVKTHTNHIFAKMGVANRNALVAKVNN	-1.46
HMKESRFDYDAVLLYSDKDSITEVKDAVQHLTKEFGSVFTTKKIPEKATFGKLFRIEKGEVNIIEDN	0.367
HMKESRLFRILYYLLQHKKATAPELAEEFEVSVRTIYRDIDYISSAGVPIYATQGKDGGIAILDSF	-0.777
HMKETLSINSTDFEVRRSSRRKRISVGFDTGTETFFIAAPTKLAGTDILRILGPQISRLMDRLT	-2.22
HMKEVDERPWGKYEVLLDAPDVKVKRITVNPGQRLSYQYHEKRAEVWTVVSGILTIILEDDKLFRG	0.17
HMKFIPPSLEEARAYFVEKGSSEPEAEKFVNHFDSIGWKVGRARTPMKKWKSAANNWIANNREWNQ	-0.543
HMKFKDYYAALGIDRNADLEQIKKAYRKLARQYHPDVSKAPDAEARFKDAAEAYATLKNPEKRAAYDELGS	0.0895
HMKFLHLADLHLGKRVNGFSMLEDQAYILRQILTILDDERPDGVLIAGDVYDKPVPPTEAVELLD	-0.859
HMKFLYQKAREEIISLIQDGEIKPSEKIMPERELSELLGYNRMTIKKAINSLVAEGVLMKKRGAGTFLLG	-0.292
HMKFLYQQVYQDIKDKITSAQYQFGDLLPSEREIGEEYHVDRTTVRKAFSLLVDEGLVEKRAGKGSVVIS	-0.74
HMKFTELEQLMLKREINTLADIARVLKTTPQAVSNWKARDQIPYHIVAKINASINKDSNDSSLSI	-0.328

Sequence	soluble fraction (log2)
HMKFTSEKDISLLELVKAKMGFVSNTKARNVIKIGQIMVSGKVIKIPSTLIKPGTEVELARRV	-1.76
HMKFYKMIDESDEKIENPEIMIFQIIELVSSTTYSAIINKEPVDVETLKPYLYQTIRTIIINHQS	0.363
HMKGEKVTKIELSNFIKFLINDLENKGFFNPPEKKDSMIDNIYSIYNKMTLTKKELNMLWGMHKKLK	-1.9
HMKGERHNKILELIQQHAIDRQEDLLRYLKEAGFQVTQATVSRDIRELHLVKVAAGGGQYRYVSAAAAS	-1.04
HMKGIHDYITKDGLRVVKVHYSADPDKDVTTVEGKKWMAKALLGYPGGLEGAKWRREMEIDFNA	-0.167
HMKGILVPASSIISDGDKNYVWTVEKGKAKKVEVTLGNADAENQEISSGLTKDSKVITNPTDSLKDGQEV	0.228
HMKGKDLQDAVVTVVGGAENWNAIRAWAQASASDSEKREINAAFQSGKLMATMMAERLALAYQQSG	0.182
HMKGKITTNWVSLTSDLGWLRSELYSSGSVLEERISNEGLIELHLENFQNDLIKLLEVEGFDLIKE	-3.18
HMKGQLVVFPNPASSNDMVRFNKNISFSIFDITGHLVDTKRNVNELSVGNLEAGTYILRTEQGDVLRMVI	-1.45
HMKGRPTTAIITDERTNLRSGPGATNKTIAQAGAGEKLAIIDEKDGWYQVSRAGINGWVAGWVIDVAW	-1.83
HMKGSIFLDEATKMVDNSALKSLNTFLEEYARETNNQIFLISHQETPAEVTQIKLKKVGGETSYE	0.154
HMKGSPFSQLPKEKKKRILQAAIEVFAQNDYKHASTDEIASRAGISKGLLFYYFHDKKTLYFYLGEYLKR	0.118
HMKGTLPEMITSREEVVLKFMVNGWDAKRIASELDISVLTVRKHIANIYEKLHVQSKAEIISMAHQQKWFN	-3.27
HMKGTSIELIVPQDIAGLRLDQVLAKLLPQWSRSRLQSWINEKHITVNGQTTTAKQKLWGNETIQIIPPI	-1.45
HMKHEFSEEWLDWIKSNIADGQNKNGLFKVLLNHGYAYDAVREVMQYEPTVPLDELVDPLRA	-0.143
HMKHFNDEELDGFAGLKSDDYNEEQVELFRNIFEELHPDEIIEWTESLRRRGIEIPSSLKDEVVMMIN	0.29
HMKHFTYEEMELMSIYDPGTREGLIANLEEMRGYLEPDETELRELTDSALEKLRELSDADYEQLELI	-0.516
HMKHMTMYEAAKIAKEVGAPKLWLTHYSPSMTRPEEFMDDVRKIFPAAYAAKDGWTMELNFDEG	-0.74
HMKHRTQMDIQQLPAIEGKGGFEYKISIIHLSTRIKYSEIHDNYNTTTIAKVYENAIERLPPF	-2.39
HMKHSLNHLGLWLLPELSRRDIQLREFAHLLGTTSQGLSDLLRGQRFSSHTLAQWQLRFQEKLDEIDQAS	-1.99
HMKHTVSVDRLQPGVFVSLGGLSWLDHPFLLNRFRLTDHDQIKVLRSLGVKEIEWDPTRSTAQPLPE	-1.04
HMKIAPRTAENQQLRKMILEIYTTSKKRVGPAKVRRMLLRDYGISISIGRVYRLMSTMNLPKMS	0.0421
HMKIDLPIWLNKKAWEAWVEYKKERKQKLTPSIIKFQLRILEKNKEDHPEIIRNSITNGWTGLFPLK	-1.81
HMKIEDSNTIKLKANQAYKTHYYSEAIKLYDELLTKYEPNSEAIKLNLAHAHFKAKGFAAASKLYT	0.0472
HMKIELTDQQKSLVVDEWNKGEANPPSLLQLIRLAYPDQPHLDGRSKEGKAVKAFLATRDINPLA	0.0244
HMKIETVENPLLERTEISALFDSKSGSLTRKEAIDLISKKARIDSSTVYAIKLSNSSGSTRIIGLFY	0.16

Sequence	soluble fraction (log2)
HMKIIDDIQEFAGVTKTQNTFFHIFNHLHQNGKQLILTSDRAPVMLQGMEERLLTRFKWGLVAELE	0.285
HMKIKKIWFDGDYIYGMDERNNTYRQSLLWYSKLRNASAEERERYTFSTIGIHWRELDEDVSFESF	-3.03
HMKIKLQATEQQRKTLDELYVQLKKLEPTSKEDLSLLYRLENPHLVSKQEAQGLISIAIGRVGSLAIEQQ	-0.44
HMKINKQHLAFQIFGIRAKLGLSMEQFGELLGANKSSVSGWERGTVVPSSQRLKKIAELGKISLAELLTP	-3.01
HMKINVQETEVYRYLLERADRLYSMILGEERENLMERTRFFEKEVAKASLPHLPKLYDEFSIYLDRLERG	-0.393
HMKIPYGELIKLLNAAAPKLQDAQGWMDMEAAGQFIGSRWSYLDYGFKDWPDSFKTVHGLEIQGQRMRLA	-0.577
HMKIQISGSQRIDENVVVKVAGLSFPQSLLSLEPGQIESKLMQELPVQEVSVQRRLLPPGLDIQLVE	-0.0996
HMKIQTYEDFRNAYPDIQGSLFGSAERYKTDLDWGDVAAKYDADEELKNVRNIFQLVRRYEQKYS	0.612
HMKISIPQEYFEIYNVLKQRPMHINEISKILKKPVSEISGTISLMEIEGYITKLTTDQYVLKKI	-0.473
HMKITADQEIETAINYFKKSIAEKGWKGVNPDEFKQMNDYLSETFGYSATIKFQKALDEQGLMVDE	-0.0068
HMKITININIETLSHHIKQSGVPLGRLQESVPDYNEIVTGNKSPTYQQLEKISKLIRVPLGLLVIESPL	0.039
HMKITLAESVYERIRRDIITNQLKPGEKINIRELSTRYEASETPIRLALNRLASENIIEHFPRQGMRVK	-1.4
HMKIVPEPGTVLIREYQEERHEVTVTLDGAFDYKGTLYSSLSEIARLITGTRWSGPVFFGLRS	-0.369
HMKIYDQVVDRIKDRISKGDMPQGSALPPERQLIDELNVSRSSLREGFRILEMMGLIESIPGKGRFVRTSR	-0.607
HMKKAIYPGSFDPLTLGHIDIIKRASGIVDELVVGVLNNSAKNSLFSLDERVSMIEEMTKDLPNVSVTSFD	0.16
HMKKEDFLEILRDYLKKGFSEDEVMDILRDYEEYFVDGIIEGKSEIEIIQSLGSPKEIANELLAES	-0.631
HMKKEQVIVPNVVGDTYDVALRKLTDAKLKVGETFPADREGHQGVIEKQSPAAGETVDEDTPVALFFKV	0.0903
HMKKERITWDERLERFAKYITENESLPYPSSKEHAWFEENKALYDAGELESVRAQSFSFLLKILRRMNLI	-0.787
HMKKGATVSGVIVEKTKKSLIIDLGAKTEGVVADKEFEFAIDFVKELKKGDEVKAIVISTDNDKGQVVLSL	-0.414
HMKKHALFTLFKHHNANGTTVWYARFWDDATQRYAIARSTGVLAQGKRERHDEAITVAREMASSIQFS	-2.81
HMKKHAPSLMRQIRRELKEGKSPESLLSKAKLISDSYYRSLSFYLLIPYLSPNSKQFQEAISLAGKDID	0.175
HMKKKSYIVSFATDEDAQRFAREGFEVISLSGRQITVSLKGEMMPLVKALGSYQVVGLETVA	-1.77
HMKKLPDDANDIIERVSSRLAQKFRFGYHTIDDMKQQAALFAWEGIYDSWDDSRPLENFLWIHVRNRLYN	-0.111
HMKKLTGVQKAAILMIALGPDISSSIIKRLPENMVERITYEIANMTKITAQQRNDILKEFMDMTVAQ	-3.64
HMKKNTEALDYYKKAGANFPEDEVISSEYLFRAAQLQEVLGKTDEAVAIYKDIKAKYPTTEIGLNVDKFIL	0.0379
